Results reported in US20230406951A1 (Pfizer, published 2023).

Biological target: T1, human TNFR2 (human, UniProt P20333 23-461)
T1 construct: expressed on the surface of CHO cells; also called HuTNFR2; TNFRSF1B
T1 sequence: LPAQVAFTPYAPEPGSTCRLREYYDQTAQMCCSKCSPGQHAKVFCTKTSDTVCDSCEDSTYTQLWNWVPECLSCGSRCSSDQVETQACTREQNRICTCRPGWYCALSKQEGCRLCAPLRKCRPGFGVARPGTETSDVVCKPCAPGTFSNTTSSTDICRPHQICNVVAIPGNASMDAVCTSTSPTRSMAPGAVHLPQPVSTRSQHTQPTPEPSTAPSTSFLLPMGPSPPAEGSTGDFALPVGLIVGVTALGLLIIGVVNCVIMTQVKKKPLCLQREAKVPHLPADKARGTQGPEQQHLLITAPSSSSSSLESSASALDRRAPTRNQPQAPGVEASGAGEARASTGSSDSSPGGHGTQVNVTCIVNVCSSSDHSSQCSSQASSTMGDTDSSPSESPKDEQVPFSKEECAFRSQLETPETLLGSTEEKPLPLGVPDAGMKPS
Experiment: binding to human TNFR2 CHO cells

B1: IgG 1961 (antibody, name in Kabat numbering, V domains shown)
VH: QVQLVQSGAEVKKPGASVKVSCKVSGFSFPSSGVDWVRQAPGQGLEWLGVTFQEGSTHYNQKFQGRVTITKDTSKSTVYMELSSLRSEDTAVYYCASGESTEGFVYWGQGTLVTVSS
VL: DIQLTQSPSFLSASVGDRVTITCKASQNVGTAVAWYQQKPGKAPKLLIYAASTLQSGVPSRFSGSGSGTEFTLTISSLQPEDFATYYCQQYSSYPLTFGGGTKVEIKR
notes: IgG
  binding result: no binding

B2: IgG 1962 (antibody, name in Kabat numbering, V domains shown)
VH: QVQLVQSGAEVKKPGASVKVSCKVSGFSFPSSGVDWVRQAPGQGLEWLGVTFQEGSTHYNQKFQGRVTITKDTSKSTVYMELSSLRSEDTAVYYCASGEHDEGFVYWGQGTLVTVSS
VL: DIQLTQSPSFLSASVGDRVTITCKASQNVGTAVAWYQQKPGKAPKLLIYAASTLQSGVPSRFSGSGSGTEFTLTISSLQPEDFATYYCQQYSSYPLTFGGGTKVEIKR
notes: IgG
  binding result: no binding

B3: IgG 1963 (antibody, name in Kabat numbering, V domains shown)
VH: QVQLVQSGAEVKKPGASVKVSCKVSGFSFPSSGVDWVRQAPGQGLEWLGVTFQEGSTHYNQKFQGRVTITKDTSKSTVYMELSSLRSEDTAVYYCASGERDEGFVYWGQGTLVTVSS
VL: DIQLTQSPSFLSASVGDRVTITCKASQNVGTAVAWYQQKPGKAPKLLIYAASTLQSGVPSRFSGSGSGTEFTLTISSLQPEDFATYYCQQYSSYPLTFGGGTKVEIKR
notes: IgG
  binding result: no binding

B4: IgG 1965 (antibody, name in Kabat numbering, V domains shown)
VH: QVQLVQSGAEVKKPGASVKVSCKVSGFSFPSSGVDWVRQAPGQGLEWLGVTLGHGSTHYNQKFQGRVTITKDTSKSTVYMELSSLRSEDTAVYYCASGESTEGFVYWGQGTLVTVSS
VL: DIQLTQSPSFLSASVGDRVTITCKASQNVGTAVAWYQQKPGKAPKLLIYAASTLQSGVPSRFSGSGSGTEFTLTISSLQPEDFATYYCQQYSSYPLTFGGGTKVEIKR
notes: IgG
  binding result: no binding

B5: IgG 1966 (antibody, name in Kabat numbering, V domains shown)
VH: QVQLVQSGAEVKKPGASVKVSCKVSGFSFPSSGVDWVRQAPGQGLEWLGVTLGHGSTHYNQKFQGRVTITKDTSKSTVYMELSSLRSEDTAVYYCASGEHDEGFVYWGQGTLVTVSS
VL: DIQLTQSPSFLSASVGDRVTITCKASQNVGTAVAWYQQKPGKAPKLLIYAASTLQSGVPSRFSGSGSGTEFTLTISSLQPEDFATYYCQQYSSYPLTFGGGTKVEIKR
notes: IgG
  binding result: no binding

B6: IgG 1967 (antibody, name in Kabat numbering, V domains shown)
VH: QVQLVQSGAEVKKPGASVKVSCKVSGFSFPSSGVDWVRQAPGQGLEWLGVTLGHGSTHYNQKFQGRVTITKDTSKSTVYMELSSLRSEDTAVYYCASGERDEGFVYWGQGTLVTVSS
VL: DIQLTQSPSFLSASVGDRVTITCKASQNVGTAVAWYQQKPGKAPKLLIYAASTLQSGVPSRFSGSGSGTEFTLTISSLQPEDFATYYCQQYSSYPLTFGGGTKVEIKR
notes: IgG
  binding result: no binding

B7: IgG 1969 (antibody, name in Kabat numbering, V domains shown)
VH: QVQLVQSGAEVKKPGASVKVSCKVSGFSFPSSGVDWVRQAPGQGLEWLGVTHGSGSTHYNQKFQGRVTITKDTSKSTVYMELSSLRSEDTAVYYCASGESTEGFVYWGQGTLVTVSS
VL: DIQLTQSPSFLSASVGDRVTITCKASQNVGTAVAWYQQKPGKAPKLLIYAASTLQSGVPSRFSGSGSGTEFTLTISSLQPEDFATYYCQQYSSYPLTFGGGTKVEIKR
notes: IgG
  binding result: no binding

B8: IgG 1970 (antibody, name in Kabat numbering, V domains shown)
VH: QVQLVQSGAEVKKPGASVKVSCKVSGFSFPSSGVDWVRQAPGQGLEWLGVTHGSGSTHYNQKFQGRVTITKDTSKSTVYMELSSLRSEDTAVYYCASGEHDEGFVYWGQGTLVTVSS
VL: DIQLTQSPSFLSASVGDRVTITCKASQNVGTAVAWYQQKPGKAPKLLIYAASTLQSGVPSRFSGSGSGTEFTLTISSLQPEDFATYYCQQYSSYPLTFGGGTKVEIKR
notes: IgG
  binding result: no binding

B9: IgG 1971 (antibody, name in Kabat numbering, V domains shown)
VH: QVQLVQSGAEVKKPGASVKVSCKVSGFSFPSSGVDWVRQAPGQGLEWLGVTHGSGSTHYNQKFQGRVTITKDTSKSTVYMELSSLRSEDTAVYYCASGERDEGFVYWGQGTLVTVSS
VL: DIQLTQSPSFLSASVGDRVTITCKASQNVGTAVAWYQQKPGKAPKLLIYAASTLQSGVPSRFSGSGSGTEFTLTISSLQPEDFATYYCQQYSSYPLTFGGGTKVEIKR
notes: IgG
  binding result: no binding

B10: IgG 1972 (antibody, name in Kabat numbering, V domains shown)
VH: QVQLVQSGAEVKKPGASVKVSCKVSGFSFPSSGVDWVRQAPGQGLEWLGVTHGSGSTHYNQKFQGRVTITKDTSKSTVYMELSSLRSEDTAVYYCASGEQDEGFVYWGQGTLVTVSS
VL: DIQLTQSPSFLSASVGDRVTITCKASQNVGTAVAWYQQKPGKAPKLLIYAASTLQSGVPSRFSGSGSGTEFTLTISSLQPEDFATYYCQQYSSYPLTFGGGTKVEIKR
notes: IgG
  binding result: no binding

B11: IgG 2013 (antibody, name in Kabat numbering, V domains shown)
VH: QVQLVQSGAEVKKPGASVKVSCKVSGFSFPSSGVDWVRQAPGQGLEWLGVTKGQGSTHYNQKFQGRVTITKDTSKSTVYMELSSLRSEDTAVYYCASGESTEGFVYWGQGTLVTVSS
VL: DIQLTQSPSFLSASVGDRVTITCKASQNVGTAVAWYQQKPGKAPKLLIYAASTLQSGVPSRFSGSGSGTEFTLTISSLQPEDFATYYCLQKSSYPLTFGGGTKVEIKR
notes: IgG
  binding result: no binding

B12: IgG 2015 (antibody, name in Kabat numbering, V domains shown)
VH: QVQLVQSGAEVKKPGASVKVSCKVSGFSFPSSGVDWVRQAPGQGLEWLGVTKGQGSTHYNQKFQGRVTITKDTSKSTVYMELSSLRSEDTAVYYCASGERDEGFVYWGQGTLVTVSS
VL: DIQLTQSPSFLSASVGDRVTITCKASQNVGTAVAWYQQKPGKAPKLLIYAASTLQSGVPSRFSGSGSGTEFTLTISSLQPEDFATYYCLQKSSYPLTFGGGTKVEIKR
notes: IgG
  binding result: no binding

B13: IgG 2016 (antibody, name in Kabat numbering, V domains shown)
VH: QVQLVQSGAEVKKPGASVKVSCKVSGFSFPSSGVDWVRQAPGQGLEWLGVTKGQGSTHYNQKFQGRVTITKDTSKSTVYMELSSLRSEDTAVYYCASGEQDEGFVYWGQGTLVTVSS
VL: DIQLTQSPSFLSASVGDRVTITCKASQNVGTAVAWYQQKPGKAPKLLIYAASTLQSGVPSRFSGSGSGTEFTLTISSLQPEDFATYYCLQKSSYPLTFGGGTKVEIKR
notes: IgG
  binding result: no binding

B14: IgG 2017 (antibody, name in Kabat numbering, V domains shown)
VH: QVQLVQSGAEVKKPGASVKVSCKVSGFSFPSSGVDWVRQAPGQGLEWLGVTRGEGSTHYNQKFQGRVTITKDTSKSTVYMELSSLRSEDTAVYYCASGESTEGFVYWGQGTLVTVSS
VL: DIQLTQSPSFLSASVGDRVTITCKASQNVGTAVAWYQQKPGKAPKLLIYAASTLQSGVPSRFSGSGSGTEFTLTISSLQPEDFATYYCLQKSSYPLTFGGGTKVEIKR
notes: IgG
  binding result: no binding

B15: IgG 2019 (antibody, name in Kabat numbering, V domains shown)
VH: QVQLVQSGAEVKKPGASVKVSCKVSGFSFPSSGVDWVRQAPGQGLEWLGVTRGEGSTHYNQKFQGRVTITKDTSKSTVYMELSSLRSEDTAVYYCASGERDEGFVYWGQGTLVTVSS
VL: DIQLTQSPSFLSASVGDRVTITCKASQNVGTAVAWYQQKPGKAPKLLIYAASTLQSGVPSRFSGSGSGTEFTLTISSLQPEDFATYYCLQKSSYPLTFGGGTKVEIKR
notes: IgG
  binding result: no binding

B16: IgG 2021 (antibody, name in Kabat numbering, V domains shown)
VH: QVQLVQSGAEVKKPGASVKVSCKVSGFSFPSSGVDWVRQAPGQGLEWLGVTFQEGSTHYNQKFQGRVTITKDTSKSTVYMELSSLRSEDTAVYYCASGESTEGFVYWGQGTLVTVSS
VL: DIQLTQSPSFLSASVGDRVTITCKASQNVGTAVAWYQQKPGKAPKLLIYAASTLQSGVPSRFSGSGSGTEFTLTISSLQPEDFATYYCLQKSSYPLTFGGGTKVEIKR
notes: IgG
  binding result: no binding

B17: IgG 2022 (antibody, name in Kabat numbering, V domains shown)
VH: QVQLVQSGAEVKKPGASVKVSCKVSGFSFPSSGVDWVRQAPGQGLEWLGVTFQEGSTHYNQKFQGRVTITKDTSKSTVYMELSSLRSEDTAVYYCASGEHDEGFVYWGQGTLVTVSS
VL: DIQLTQSPSFLSASVGDRVTITCKASQNVGTAVAWYQQKPGKAPKLLIYAASTLQSGVPSRFSGSGSGTEFTLTISSLQPEDFATYYCLQKSSYPLTFGGGTKVEIKR
notes: IgG
  binding result: no binding

B18: IgG 2023 (antibody, name in Kabat numbering, V domains shown)
VH: QVQLVQSGAEVKKPGASVKVSCKVSGFSFPSSGVDWVRQAPGQGLEWLGVTFQEGSTHYNQKFQGRVTITKDTSKSTVYMELSSLRSEDTAVYYCASGERDEGFVYWGQGTLVTVSS
VL: DIQLTQSPSFLSASVGDRVTITCKASQNVGTAVAWYQQKPGKAPKLLIYAASTLQSGVPSRFSGSGSGTEFTLTISSLQPEDFATYYCLQKSSYPLTFGGGTKVEIKR
notes: IgG
  binding result: no binding

B19: IgG 2025 (antibody, name in Kabat numbering, V domains shown)
VH: QVQLVQSGAEVKKPGASVKVSCKVSGFSFPSSGVDWVRQAPGQGLEWLGVTLGHGSTHYNQKFQGRVTITKDTSKSTVYMELSSLRSEDTAVYYCASGESTEGFVYWGQGTLVTVSS
VL: DIQLTQSPSFLSASVGDRVTITCKASQNVGTAVAWYQQKPGKAPKLLIYAASTLQSGVPSRFSGSGSGTEFTLTISSLQPEDFATYYCLQKSSYPLTFGGGTKVEIKR
notes: IgG
  binding result: no binding

B20: IgG 2026 (antibody, name in Kabat numbering, V domains shown)
VH: QVQLVQSGAEVKKPGASVKVSCKVSGFSFPSSGVDWVRQAPGQGLEWLGVTLGHGSTHYNQKFQGRVTITKDTSKSTVYMELSSLRSEDTAVYYCASGEHDEGFVYWGQGTLVTVSS
VL: DIQLTQSPSFLSASVGDRVTITCKASQNVGTAVAWYQQKPGKAPKLLIYAASTLQSGVPSRFSGSGSGTEFTLTISSLQPEDFATYYCLQKSSYPLTFGGGTKVEIKR
notes: IgG
  binding result: no binding
